From the nanobody polyreactivity screen of Harvey et al. (2022)

Assay: yeast display, Sf9 membrane polyspecificity reagent, FACS + sequencing; frameworks hold sequencing errors
How it was run: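 Polyreactivity labels are assigned by the sorting gate from which each nanobody was recovered. The gates were low and high (top ~1%), set on anti-HA fluorescence for expression and streptavidin fluorescence for reagent binding. Before sorting, galactose-induced (36–48 hours) yeast display cells were stained for 1 hour at 4 °C with 10% biotinylated, detergent-solubilized Sf9 membrane reagent.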

Sequence	polyreactivity (PSR sort gate)
QVQLVESGGGLVQAGGSLRLICAASGSTSQNKAMGWYRPAPGKERELVAAITWSGDSTYYADSVKGRFTISRDNAKNTVYIQMNSLKPEDSAVYYCAAVSRFFSTYLYDYWGEGTQVTVSS	low polyreactivity
QVQLVESGGGLVQAGGSLRLICAASGTISSLNTMGWYRQAPVKERELVASITWSGGSTYADSVKGRFTISRDNAKNTVYLQMNSLKPEDTAVYYCAKGVWFSRRRYGYWGQGTQVTVSS	high polyreactivity
QVQLVESGGGLVQAGGSLRLICAASGVTFWSDAMGWYRQAPGKEREFVAAITTSAGRTNYADSVKGRFTISRDNAQNTVYLKMNSLKPEDTAVYYCAARSAYTGLGSGFDYWGQGTQVSVSS	low polyreactivity
QVQLVESGGGLVQAGGSLRLICAASGYTFSYYAMGWYRQAPGKERELVAAINYSGGRTYYADSVKGRFTISRDNAKNTVYLQMNSLKPDDTAVYYCAAYTRNGDYDYWGQGTQVTVSS	high polyreactivity
QVQLVESGGGLVQAGGSLRLICADSGSTFTGNAMGWYRQAPGKERELVAAISRSGGRTYYADSVKGRFTISRDNAKNTVYLQMNSLKPEDTAVYYCNAVRNRGQRTAFDYWGQGTQVTVSS	high polyreactivity
QVQLVESGGGLVQAGGSLRLICASSGLNFVVYAMGRSRPAPGKERELVAAISSGGGSTYYADSVKGRFTISRDNAKNSVYLQMNSQKPEDTEVYYCNAVDKLYYWRYDYWRQGTQVTVSS	low polyreactivity
QVQLVESGGGLVQAGGSLRLICDASGRIFPWYTMGWYRQAPGKERELVAAITSGGNKDYADSVKGRFTISRDYAKNTVFLQMNSLKPEDTAVYYCAAGPDPLGEDYWGQGTQVTVSS	low polyreactivity
QVQLVESGGGLVQAGGSLRLICDASGRTFGPYVMRLYRQAPGKERELVASISSADSRYYADSVKGRFTISRDNAKNTVYLQMNSLKPEDTAVYYCAAPSVGYYDPTDFDYWGQGTQVTVSS	low polyreactivity
QVQLVESGGGLVQAGGSLRLICPASGRIFLTKAIGWYRPAPGIDRELVADISRGGSTYADSVKGRFTISSDNAKNTVYLQINSLKPEDTAVYYCAPDEYSPADSRTRYDYWGQGTQVSVSS	low polyreactivity
QVQLVESGGGLVQAGGSLRLIFAASGSIFPDYAMGWYITAPGKERELVAAISRSGGRTSYADSVKGRFTISRDNAKNTVFLQMNSLKPEDTAVYYCNVASRQGSTYDYWGQGTQVTVSS	high polyreactivity
QVQLVESGGGLVQAGGSLRLISAASGFTFAWYTMGWYRQAPGKERELVAAITDSGDSTYYADSVKGRFTISRDNAKNTVYLQMNSLKPEDTAVYYCATRSWYWDIWITEYDYWGQGTQVTVSS	low polyreactivity
QVQLVESGGGLVQAGGSLRLISAASGITFDPYAMGWYRQAPGKEREFVAAITRRSASTYYADSVKGRFTISRDNAKNTVYLQMNSLKPEDTALYYCAARGKVPYNYWGQGTQVTVSS	high polyreactivity
QVQLVESGGGLVQAGGSLRLISAASVRTFAPYPRGWYREAPGKDRELVAAISSGGGNTYYADSVKGRFTISRDHPKNTVYLLMNSLKPEDTAGYYCNAAQRRGGLGYWGQGTQVTVSS	high polyreactivity
QVQLVESGGGLVQAGGSLRLNCAASGITFSANAMGWYRQATGKERELVASNRSSGGSTYYADSVKGRFTISRDNEKKTVYLQMNSLKPEDTAVYSRNARLGPLYVYRQYDSWGQGTQVTVSS	low polyreactivity
QVQLVESGGGLVQAGGSLRLNCAASGRIFDVNAMGWYRQAPGKERELVAAITYSDGSTYYADSLKGRFTISRDTAKNTVYLQMNSLKPEDTAVYYCAATHEPVTPQPYGYWGQGTQVTVSS	low polyreactivity
QVQLVESGGGLVQAGGSLRLNCAASGRISTYYVMGWYRQAPGKERELVAAINWSDGSTYYADSVKGRFTISRDNAKNTVYFQMNSLKPEDTAVYYCNVDAGVEGGTVDYWGQGTQVTVSS	low polyreactivity
QVQLVESGGGLVQAGGSLRLNCAASGRNLPFYAMGWYRQAPGKERDLVATISWTSDSTYYADSVKGRFTISRDNPKNTVFLQMNSLIREVTGVYYCASVYTYTYASTVIYDHWGQGTQVTVSS	low polyreactivity
QVQLVESGGGLVQAGGSLRLNCAASGSTLARYAMGWYRQAPGKERELVAAITWSGVSTYYADSVKGRFTISRDNAKNTVYLQMISLKPEDTAVYYCNARIFRSPNPYDYWGEGTQVTVSS	high polyreactivity
QVQLVESGGGLVQAGGSLRLRCAASARTFRDYAMGCYRQATGKERELVAVIDSGGGTDYADSVKGRFTISRDNAKNTVYLQMNSLKPEDTAVYYCAADSSVRYRDTEDYWGQGTQVTVSS	low polyreactivity
QVQLVESGGGLVQAGGSLRLRCAASGFIFRLYAMGWYIQAPGKERELVASITQGGSTYYADSVKGRFTISRDNAKNTVYLLMNSLKPEDTAVNDCAATYLHVYRRRFYYWGQGTQVSVSS	high polyreactivity
QVQLVESGGGLVQAGGSLRLRCAASGFIFSYYAMGWYRQAPGKERELVAGISYNGNRTYYADSVEGRFTISRDNAKNTVYLQMNSLKPEDTAVYYCNVVCVLGGWYDLEYDYWGQGTQVTVSS	high polyreactivity
QVQLVESGGGLVQAGGSLRLRCAASGFTYSYYAMGWYRQAPGKERELVAAINSGGSTYYADSVKGRFTISRDNAKNTVFLLMNSLKPEDTAVYYCAAVYSPGRGYGYIYYYWGQGSQVTVSS	high polyreactivity

Sequence	polyreactivity (PSR sort gate)
QVQLVESGGGLVQAGGSLRLRCAASGGIFGRYAMGWYRQAPGKERELVAAISKRGGSTYYADSVKGRFTISRDNAKNTVYLLMNSLKPEDTAVYYCNASQSVELGYDYLGQGTQVTVSS	high polyreactivity
QVQLVESGGGLVQAGGSLRLRCAASGGIFSIYAMGWYRQAPGKERELVAAISTSGGSTYYADSVKARFTISRDNAKNTVYLQMNSLKPEDTAVYYCNARSQQWWLSRYNYWGQGTQVTVSS	high polyreactivity
QVQLVESGGGLVQAGGSLRLRCAASGGIINWYAMGWYRQAQGKERELVAAISWRTTSTYYADSVKGRFTISRDTAKNTVYLQMNCLKPEDTAVYYCYASGEVLAAVVTYDYWGQGTQVTVSS	low polyreactivity
QVQLVESGGGLVQAGGSLRLRCAASGLIFAEYAIGWYRQAPGKERELVARITSGGSTDYADSVKGRFTISRDNAKNTVYLQMNSLKPEDTAVYYCAARYYSQDKNASTASDFDYWGQGTQVTVSS	low polyreactivity
QVQLVESGGGLVQAGGSLRLRCAASGNIFGIYTMAWYRQAPGKESDFVAVISLSGTSTYYADSVKGRFTISRDNAKNTVYLQMNSLKPEDTAVYYCNARTPHNKGRRRAYDYWGQGTEVTVSS	high polyreactivity
QVQLVESGGGLVQAGGSLRLRCAASGRIFGVYVMGWYRQAPGKESEFVAAISWSGSHTYYADSVKGRFTISRYNAKNTVYLQMNSLKPEDTAVYYCNADSYPDYTGPGLDWYDFWGQGTQVTVSS	low polyreactivity
QVQLVESGGGLVQAGGSLRLRCAASGRIFPYYAMGWYRQSPGKERELVAAIRWSGGDTYYADSVKGRFTISRDNAKNTVYLQMNSLKPEDTAVYYCAAKAYSYSRWGYYGYYYWGQGTQVTVSS	high polyreactivity
QVQLVESGGGLVQAGGSLRLRCAASGRIIFRNAMVWYRQAHGKERELVAAITRGGGSTYYADSVKGRFTISRDNAKNTVYLQMNSLKPEDTAVYYCAAGACYSLYSAYDYWGQGTQVTVSS	low polyreactivity
QVQLVESGGGLVQAGGSLRLRCAASGRIQPGNAMGWYRQATGKERELVAAISSGGRTNYADSVKGRFTISRDIAKITVYLQMNSLKPEDTAVYYCAKRTVWWSIWHYYPPTYNYWGQGTQVTVSS	high polyreactivity
QVQLVESGGGLVQAGGSLRLRCAASGRTFPSYTMGWYRQAPGKERELVAAITWTGGSTYYADSVKGRFTISRDNAKNTVYLQMNSLKPEDTAVYYCADYDYWGQGTQVTVSS	low polyreactivity
QVQLVESGGGLVQAGGSLRLRCAASGRTFRVYAMGWYRQAPGKERELVATITSSGGSTYYADSVKGRFTISRDNAKNTVYLQMNSLKPEDTAVYYCNVSVYNNYDSSYYYWGQGTQVTVSS	low polyreactivity
QVQLVESGGGLVQAGGSLRLRCAASGRTFSAYAMGWYRQAPGKERELVAAISRRGGSTYYADSVKWRFTISRDNAKNTVYFQMNSLKPSDTAVYYCAADVYKQYGFYYWGQVTQVTVSS	high polyreactivity
QVQLVESGGGLVQAGGSLRLRCAASGRTFSSYDKAWYRPAPGKERELVAAITKSGGSTYYADSVKGRFTLSRDKAKNTVYLQMNSLKPDDTAVYYCGYQYYYWGQGTQVTVSS	high polyreactivity
QVQLVESGGGLVQAGGSLRLRCAASGRTFYKNTMGWYRQAPGKERELVATISQRGGATYYADSVKGRFTISRDNAKNTVYLQMTSLKPEDTAVYYCNARKYTQSIHYDYWGQGTQVTVSS	high polyreactivity
QVQLVESGGGLVQAGGSLRLRCAASGRTFYVYAMGWYRQAPGKERELVATNNTGGSTYYADSVKGRFTISRDNAKNTVYLQMNSLKPEDTAVYYCAARYNPYYIRFGFDKSFYYWGQGTQVTVSS	low polyreactivity
QVQLVESGGGLVQAGGSLRLRCAASGRTLWLYTMGWYRQAPGKERELVARIRSGGSTYYADSVKGRFTISRDNAKNTVYLQMNSLKPEDTAVYYCAAYPYWIHYENYYWGQGTQVTVSS	high polyreactivity
QVQLVESGGGLVQAGGSLRLRCAASGRTNAYYNMGRYRQAPGKERELVAAISKSGGSTYYADSVKGRFTISRDNAKNTVYLQMNSLKPEDTAVYYCAKRRSGNVRKYDYWGQGTQVTVSS	high polyreactivity
QVQLVESGGGLVQAGGSLRLRCAASGSIFGGNAMGWYRQAPGKEREMVATITDRGSSTYYADSVKGRFTISRDNAKNTGYLQMNSLKPEDTAVYYCATAFPDVPEHDYWGQGTQVTVSS	low polyreactivity
QVQLVESGGGLVQAGGSLRLRCAASGSIFKYYAMGWYRQAPGTERELVAAITWSGTRTYYADSVKGRFTISRDNAKNTVYVQMNSLKPEDTAVYYCNAPRYLYSAGRFNYWGQGTQVTVSS	high polyreactivity
QVQLVESGGGLVQAGGSLRLRCAASGSIFSNNAMGWYRPAPGKERELVAAITRSGGNTYYADSVKGRFTISRDNAKNTVYLQMNSLKPEDTAVYYCNAVHLRKMYYWGQGTQVTVSS	high polyreactivity
QVQLVESGGGLVQAGGSLRLRCAASGSIFVVNAMGWYRPAPGKERELVAAISWSDTTTYYADSVKARFTISRDNAKNTVYLQMNSLKPEDTAVYYCAAGFVIKYDYWGQGTQVTVSS	low polyreactivity
